Assay results from publication PMC5113989.
Like-named read-outs stand apart in the source and are kept apart here.

Key:
Experiment in all cases: KinExA flow fluorimetry (depletion of 5-Helix by cells)
[1] = target: C34-conjugated CCR5 (gp41 HR2 peptide C34 fused to the amino terminus of CCR5) (HIV-1 (HxB2 numbering) | human (genomic DNA of the Jurkat T cell line)) (UniProt P04578)
[2] = target: C34-conjugated CXCR4 (gp41 HR2 peptide C34 fused to the amino terminus of CXCR4) (HIV-1 (HxB2 numbering) | not stated) (UniProt P04578)
[3] = target: C34-conjugated CCR5 (gp41 HR2 peptide C34 fused to the amino terminus of CCR5) (HIV-1 (HxB2 numbering) | human (genomic DNA of the Jurkat T cell line)) (UniProt P04578); remark: listed apart in the source
[4] = target: C34-conjugated CXCR4 (gp41 HR2 peptide C34 fused to the amino terminus of CXCR4) (HIV-1 (HxB2 numbering) | not stated) (UniProt P04578); remark: listed apart in the source

rhodamine-conjugated 5-Helix (5-Helix variant containing a C-terminal Cys residue)
Kd [1]: < 0.015 nM
Kd [2]: < 0.015 nM
Kd [3]: 0.013 nM
Kd [4]: 0.004 nM
